Measurements from patent US20230265151A1, “GIP/GLP1 CO-AGONIST COMPOUNDS” (priority 2020, published 2023).

B1: Y-Aib-EGT-αMeF(2F)-TSD-4Pal-SI-αMeL-LD-Orn-K((2-[2-(2-Amino-ethoxy)-ethoxy]-acetyl)2-(γ-Glu)-CO-(CH2)12-CO2H)AQ-Aib-EFIK((2-[2-(2-Amino-ethoxy)-ethoxy]-acetyl)2 … (peptide)
peptide: YXEGTXTSDXSIXLDXKAQXEFIKXLIEGGPSSGAPPPS
modifications: Aib2, αMeF(2F)6, 4Pal10, αMeL13, Orn16, Aib20, αMeY25; acylated K17, K24 (groups as in name); C-terminal amide
B2: Y-Aib-EGT-αMeF(2F)-TSD-4Pal-SI-αMeL-LD-Orn-K((2-[2-(2-Amino-ethoxy)-ethoxy]-acetyl)2-(γ-Glu)-CO-(CH2)12-CO2H)AQ-Aib-K((2-[2-(2-Amino-ethoxy)-ethoxy]-acetyl)2-(γ … (peptide)
peptide: YXEGTXTSDXSIXLDXKAQXKFIXXLIEGGPSSGAPPPS
modifications: Aib2, αMeF(2F)6, 4Pal10, αMeL13, Orn16, Aib20, D-Glu24, αMeY25; acylated K17, K21 (groups as in name); C-terminal amide
B3: Y-Aib-EGT-αMeF(2F)-TSD-4Pal-SI-αMeL-LD-Orn-K((2-[2-(2-Amino-ethoxy)-ethoxy]-acetyl)3-(γ-Glu)-CO-(CH2)14-CH3)AQ-Aib-EFI-(D-Glu)-αMeY-LIEGGK((2-[2-(2-Amino-ethoxy … (peptide)
peptide: YXEGTXTSDXSIXLDXKAQXEFIXXLIEGGKSSGAPPPS
modifications: Aib2, αMeF(2F)6, 4Pal10, αMeL13, Orn16, Aib20, D-Glu24, αMeY25; acylated K17, K31 (groups as in name); C-terminal amide
B4: Y-Aib-EGT-αMeF(2F)-TSD-4Pal-SI-αMeL-LD-Orn-K((2-[2-(2-Amino-ethoxy)-ethoxy]-acetyl)2-CO-(CH2)12-CO2H)AQ-Aib-K((2-[2-(2-Amino-ethoxy)-ethoxy]-acetyl)2-CO-(CH2)12 … (peptide)
peptide: YXEGTXTSDXSIXLDXKAQXKFIXXLIEGGPSSGAPPPS
modifications: Aib2, αMeF(2F)6, 4Pal10, αMeL13, Orn16, Aib20, D-Glu24, αMeY25; acylated K17, K21 (groups as in name); C-terminal amide
B5: Y-Aib-EGT-αMeF(2F)-TSD-4Pal-SI-αMeL-LD-Orn-K((2-[2-(2-Amino-ethoxy)-ethoxy]-acetyl)2-(εK)-CO-(CH2)12-CO2H)AQ-Aib-EFI-(D-Glu)-αMeY-LIEGGK((2-[2-(2-Amino-ethoxy)- … (peptide)
peptide: YXEGTXTSDXSIXLDXKAQXEFIXXLIEGGKSSGAPPPS
modifications: Aib2, αMeF(2F)6, 4Pal10, αMeL13, Orn16, Aib20, D-Glu24, αMeY25; acylated K17, K31 (groups as in name); C-terminal amide
B6: Y-Aib-EGT-αMeF(2F)-TSD-4Pal-SI-αMeL-LD-Orn-K((2-[2-(2-Amino-ethoxy)-ethoxy]-acetyl)-(y-Glu)-CO-(CH2)12-CO2H)AQ-Aib-K((2-[2-(2-Amino-ethoxy)-ethoxy]-acetyl)-(γ-G … (peptide)
peptide: YXEGTXTSDXSIXLDXKAQXKFIXXLIEGGPSSGAPPPS
modifications: Aib2, αMeF(2F)6, 4Pal10, αMeL13, Orn16, Aib20, D-Glu24, αMeY25; acylated K17, K21 (groups as in name); C-terminal amide
B7: Y-Aib-EGT-αMeF(2F)-TSD-4Pal-SI-αMeL-LD-Orn-K((2-[2-(2-Amino-ethoxy)-ethoxy]-acetyl)2-(γ-Glu)-CO-(CH2)14-CH3)AQ-Aib-EFIK((2-[2-(2-Amino-ethoxy)-ethoxy]-acetyl)2- … (peptide)
peptide: YXEGTXTSDXSIXLDXKAQXEFIKXLIEGGPSSGAPPPS
modifications: Aib2, αMeF(2F)6, 4Pal10, αMeL13, Orn16, Aib20, αMeY25; acylated K17, K24 (groups as in name); C-terminal amide
B8: Y-Aib-EGT-αMeF(2F)-TSD-4Pal-SI-αMeL-LD-Orn-K((2-[2-(2-Amino-ethoxy)-ethoxy]-acetyl)2-(γ-Glu)-CO-(CH2)14-CH3)AQ-Aib-EFI-(D-Glu)-αMeY-LIK((2-[2-(2-Amino-ethoxy)-e … (peptide)
peptide: YXEGTXTSDXSIXLDXKAQXEFIXXLIKGGPSSGAPPPS
modifications: Aib2, αMeF(2F)6, 4Pal10, αMeL13, Orn16, Aib20, D-Glu24, αMeY25; acylated K17, K28 (groups as in name); C-terminal amide
B9: Y-Aib-EGT-αMeF(2F)-TSD-4Pal-SI-αMeL-LD-Orn-K((2-[2-(2-Amino-ethoxy)-ethoxy]-acetyl)2-(γ-Glu)-CO-(CH2)10-CH3)AQ-Aib-K((2-[2-(2-Amino-ethoxy)-ethoxy]-acetyl)2-(γ- … (peptide)
peptide: YXEGTXTSDXSIXLDXKAQXKFIXXLIEGGPSSGAPPPS
modifications: Aib2, αMeF(2F)6, 4Pal10, αMeL13, Orn16, Aib20, D-Glu24, αMeY25; acylated K17, K21 (groups as in name); C-terminal amide
B10: Y-Aib-EGT-αMeF(2F)-TSD-4Pal-SI-αMeL-LD-Orn-K((2-[2-(2-Amino-ethoxy)-ethoxy]-acetyl)3-(γ-Glu)-CO-(CH2)12-CO2H)AQ-Aib-EFI-(D-Glu)-αMeY-LIEGGK((2-[2-(2-Amino-ethox … (peptide)
peptide: YXEGTXTSDXSIXLDXKAQXEFIXXLIEGGKSSGAPPPS
modifications: Aib2, αMeF(2F)6, 4Pal10, αMeL13, Orn16, Aib20, D-Glu24, αMeY25; acylated K17, K31 (groups as in name); C-terminal amide
B11: Y-Aib-EGT-αMeF(2F)-TSD-4Pal-SI-αMeL-LD-Orn-IAQ-Aib-K((2-[2-(2-Amino-ethoxy)-ethoxy]-acetyl)2-(γ-Glu)-CO-(CH2)12-CO2H)FI-(D-Glu)-αMeY-LIK((2-[2-(2-Amino-ethoxy)- … (peptide)
peptide: YXEGTXTSDXSIXLDXIAQXKFIXXLIKGGPSSGAPPPS
modifications: Aib2, αMeF(2F)6, 4Pal10, αMeL13, Orn16, Aib20, D-Glu24, αMeY25; acylated K21, K28 (groups as in name); C-terminal amide
B12: Y-Aib-EGT-αMeF(2F)-TSD-4Pal-SI-αMeL-LD-Orn-K((γ-Glu)-(2-[2-(2-Amino-ethoxy)-ethoxy]-acetyl)-CO-(CH2)12-CO2H)AQ-Aib-EFI-(D-Glu)-αMeY-LIEGGK((γ-Glu)-(2-[2-(2-Amin … (peptide)
peptide: YXEGTXTSDXSIXLDXKAQXEFIXXLIEGGKSSGAPPPS
modifications: Aib2, αMeF(2F)6, 4Pal10, αMeL13, Orn16, Aib20, D-Glu24, αMeY25; acylated K17, K31 (groups as in name); C-terminal amide
B13: Y-Aib-EGT-αMeF(2F)-TSD-4Pal-SI-αMeL-LD-Orn-K((2-[2-(2-Amino-ethoxy)-ethoxy]-acetyl)2-(γ-Glu)-CO-(CH2)14-CH3)AQ-Aib-K((2-[2-(2-Amino-ethoxy)-ethoxy]-acetyl)2-(γ- … (peptide)
peptide: YXEGTXTSDXSIXLDXKAQXKFIXXLIEGGPSSGAPPPS
modifications: Aib2, αMeF(2F)6, 4Pal10, αMeL13, Orn16, Aib20, D-Glu24, αMeY25; acylated K17, K21 (groups as in name); C-terminal amide
B14: Y-Aib-EGT-αMeF(2F)-TSD-4Pal-SI-αMeL-LD-Orn-K((2-[2-(2-Amino-ethoxy)-ethoxy]-acetyl)2-(γ-Glu)-CO-(CH2)12-CO2H)AQ-Aib-EFI-(D-Glu)-αMeY-LIK((2-[2-(2-Amino-ethoxy)- … (peptide)
peptide: YXEGTXTSDXSIXLDXKAQXEFIXXLIKGGPSSGAPPPS
modifications: Aib2, αMeF(2F)6, 4Pal10, αMeL13, Orn16, Aib20, D-Glu24, αMeY25; acylated K17, K28 (groups as in name); C-terminal amide
B15: Y-Aib-EGT-αMeF(2F)-TSDK((2-[2-(2-Amino-ethoxy)-ethoxy]-acetyl)2-(γ-Glu)-CO-(CH2)14-CH3)SI-αMeL-LD-Orn-K((2-[2-(2-Amino-ethoxy)-ethoxy]-acetyl)2-(γ-Glu)-CO-(CH2) … (peptide)
peptide: YXEGTXTSDKSIXLDXKAQXEFIXXLIEGGPSSGAPPPS
modifications: Aib2, αMeF(2F)6, αMeL13, Orn16, Aib20, D-Glu24, αMeY25; acylated K10, K17 (groups as in name); C-terminal amide
B16: Y-Aib-EGT-αMeF(2F)-TSDK((2-[2-(2-Amino-ethoxy)-ethoxy]-acetyl)2-(γ-Glu)-CO-(CH2)12-CO2H)SI-αMeL-LD-Orn-K((2-[2-(2-Amino-ethoxy)-ethoxy]-acetyl)2-(γ-Glu)-CO-(CH2 … (peptide)
peptide: YXEGTXTSDKSIXLDXKAQXEFIXXLIEGGPSSGAPPPS
modifications: Aib2, αMeF(2F)6, αMeL13, Orn16, Aib20, D-Glu24, αMeY25; acylated K10, K17 (groups as in name); C-terminal amide
B17: Y-Aib-EGT-αMeF(2F)-TSD-4Pal-SI-αMeL-LD-Orn-K((εK)-(2-[2-(2-Amino-ethoxy)-ethoxy]-acetyl)2-(γ-Glu)-CO-(CH2)12-CO2H)AQ-Aib-EFI-(D-Glu)-αMeY-LIEGGK((εK)-(2-[2-(2-A … (peptide)
peptide: YXEGTXTSDXSIXLDXKAQXEFIXXLIEGGKSSGAPPPS
modifications: Aib2, αMeF(2F)6, 4Pal10, αMeL13, Orn16, Aib20, D-Glu24, αMeY25; acylated K17, K31 (groups as in name); C-terminal amide
B18: Y-Aib-EGT-αMeF(2F)-TSD-4Pal-SI-αMeL-LD-Orn-K((2-[2-(2-Amino-ethoxy)-ethoxy]-acetyl)2-(γ-Glu)-(4-(4-tert-butylphenyl)butanoyl))AQ-Aib-EFI-(D-Glu)-αMeY-LIK((2-[2- … (peptide)
peptide: YXEGTXTSDXSIXLDXKAQXEFIXXLIKGGPSSGAPPPS
modifications: Aib2, αMeF(2F)6, 4Pal10, αMeL13, Orn16, Aib20, D-Glu24, αMeY25; acylated K17, K28 (groups as in name); C-terminal amide
B19: Y-Aib-EGT-αMeF(2F)-TSD-4Pal-SI-αMeL-LD-Orn-K((2-[2-(2-Amino-ethoxy)-ethoxy]-acetyl)-(γ-Glu)-CO-(CH2)10-CH3)AQ-Aib-EFI-(D-Glu)-αMeY-LIEGGK((2-[2-(2-Amino-ethoxy) … (peptide)
peptide: YXEGTXTSDXSIXLDXKAQXEFIXXLIEGGKSSGAPPPS
modifications: Aib2, αMeF(2F)6, 4Pal10, αMeL13, Orn16, Aib20, D-Glu24, αMeY25; acylated K17, K31 (groups as in name); C-terminal amide

Each binder was assayed against human glucagon receptor (human, UniProt P47871 26-477) (assay: cell-based or functional assay).

Binder	cAMP EC50 (1.0% HSA)
B1	> 9.95 µM
B2	> 9.95 µM
B3	> 9.95 µM
B4	> 9.95 µM
B5	> 9.95 µM
B6	> 9.95 µM
B7	> 9.95 µM
B8	> 9.95 µM
B9	> 9.95 µM
B10	> 9.95 µM
B11	> 9.95 µM
B12	> 9.95 µM
B13	> 9.95 µM
B14	> 9.95 µM
B15	> 9.95 µM
B16	> 9.95 µM
B17	> 9.95 µM
B18	> 9.95 µM
B19	> 9.95 µM
